Data: publication PMC11063343

Molecular target: SARS-CoV-2 S1 spike domain
Experiment: SPR
Conditions: 2.5 µM SARS-CoV-2-S1; parent: est. 450; read off a plot

**Q.** With “cellugyrin N-Term peptide Y6A; K10A; F15A” as the substance, how does the response read?
**A.** 45 RU
